Experimental data: patent US20030119155A1

Biological target: Methanol dehydrogenase (MDH) of Bacillus brevis S1 strain (NCIMB 12524) (Bacillus brevis S1 strain (NCIMB 12524))
Assay: cell-based or functional assay

For “Amd (Activator of methanol dehydrogenase), YqkG gene product of Bacillus subtilis 168 strain (from UniProt P54570 1-185)”, the NADH producing rate (increase of absorbance at 340 nm after methanol addition) in cell extract, against the pHY300PLK vector control was 5 times.
